Marks after values point to notes of the source that are not given here.

Series [1] is described as follows: Ketose 3-epimerase activity assay: D-fructose formed from D-psicose. In kind it is biochemical. To be noted: D-psicose 3-epimerase activity, per purification step. On the procedure:
The activity of the ketose 3 -epimerase of the present invention can be assayed by measuring the amount of D-fructose formed from D-psicose as a substrate. Specifically, the activity of the enzyme can be assayed as follows: A substrate solution is prepared by dissolving D-psicose in 20 mM Tris-HCl buffer (pH 8.0) containing 1 mM MnCl2 to give a final concentration of 1% (w/v). Two milliliters of the substrate solution is admixed with 0.5 ml of the enzyme solution, and the mixture solution is incubated at 45° C. for 30 min. The reaction is stopped by keeping the reaction mixture in boiling water bath for 5 min. Successively, 1 ml of the reaction mixture is admixed with 1 ml of deionized water and 1 ml NADP solution, prepared by dissolving 2.37 g of NADP, 5.93 g of ATP, and 1 g of MgSO4 7H2O into 500 ml of 0.3 M triethanolamine-HCl buffer (pH 7.6). […] After keeping the resulting mixture at room temperature for 30 min, absorbance of the mixture at 340 nm was measured for determining the amount of D-fructose formed by the reaction. […]
The following experiments explain the present invention in detail. In the following experiments, D-psicose 3-epimerase activity, converting D-psicose into D-fructose, was assayed according to the aforementioned assay method and expressed as ketose 3-epimerase activity.

The nature of series [2]: Optimum pH and optimum temperature of the enzyme. It is filed as biochemical. The following applies: for Optimum temperature: pH 8.0, 30 min. On the procedure: The activity of the ketose 3 -epimerase of the present invention can be assayed by measuring the amount of D-fructose formed from D-psicose as a substrate. Specifically, the activity of the enzyme can be assayed as follows: A substrate solution is prepared by dissolving D-psicose in 20 mM Tris-HCl buffer (pH 8.0) containing 1 mM MnCl2 to give a final concentration of 1% (w/v). Two milliliters of the substrate solution is admixed with 0.5 ml of the enzyme solution, and the mixture solution is incubated at 45° C. for 30 min. The reaction is stopped by keeping the reaction mixture in boiling water bath for 5 min. Successively, 1 ml of the reaction mixture is admixed with 1 ml of deionized water and 1 ml NADP solution, prepared by dissolving 2.37 g of NADP, 5.93 g of ATP, and 1 g of MgSO4 7H2O into 500 ml of 0.3 M triethanolamine-HCl buffer (pH 7.6). While, Enzyme solution A and B, described below, were respectively diluted 4-fold with 0.3 M triethanolamine-HCl buffer (pH 7.6) and then both solutions were mixed in equal amount to make into a mixed enzyme solution. Then, 40 ml of the mixed enzyme solution was admixed with the mixture prepared above. After keeping the resulting mixture at room temperature for 30 min, absorbance of the mixture at 340 nm was measured for determining the amount of D-fructose formed by the reaction. […]
According to the methods described in Experiment 2, the soluble fraction of cell homogenate, obtained by the method in Experiment 5, was partially purified by salting out, dialysis and successive column chromatographies on “SEPABEADS” gel and “BUTYL-TOYOPEARL” gel, and the partially purified enzyme preparation was analyzed according to the methods in Experiment 3. […]

B1: ketose 3-epimerase: purified ketose 3-epimerase from Rhizobium leguminosarum ATCC14480, 282 amino acid residues represented by SEQ ID NO: 2 (protein, listed as Rhizobium leguminosarum)
chain: MEGFGVHTSMWTMNWDRAGAEKAIAGAVHYKMDFIEIALLNAPAVDAKHTRALLEKNKLRAVCSLGLPEHAWASVRPDAAIEHLKVAIEKTAEMNAEALSGVIFGGIGERTGVPPTQGEYDNIAKVLDVAAKHARKHGIQLGVEAVNRYENHLINSAQQAVDMVERVGADNIFVHLDTYHMNIEEKGAANGILIARDHLKYIHLSESDRGTPGYGNIPWDAIYAALAAIGFKGGLAMESFINMPPEVAYGLAVWRPVARDMEEVMDKGLPFLRNKAEQYGLI
Consider B1, for which the “Specific activity of ketohexose 3-epimerase” value in series [1] was 41.6 units/mg-protein. Also, the “Optimum pH” value in series [2] (45° C., 30 min, in the presence of 1 mM Mn2+ ion) is listed as 9.0-9.5*. Further, the values for the Optimum temperature in series [2] (in the absence of 1 mM Mn2+ ion) and in series [2] (in the presence of 1 mM Mn2+ ion) were 50 °C and “(65° C.)*”, respectively.

The values above are taken from patent publication US20110275138A1, “KETOSE 3-EPIMERASE, ITS PREPARATION AND USES” (KABUSHIKI KAISHA HAYASHIBARA SEIBUTSU KAGAKU KENKYUJO, priority 2005, published 2011).
